Measurements published in paper PMC2827695 (Journal of the American Society for Mass Spectrometry, 2009).

Biological target: T1, IFNAR1 (UniProt P17181 28-436)
T1 sequence (looked up): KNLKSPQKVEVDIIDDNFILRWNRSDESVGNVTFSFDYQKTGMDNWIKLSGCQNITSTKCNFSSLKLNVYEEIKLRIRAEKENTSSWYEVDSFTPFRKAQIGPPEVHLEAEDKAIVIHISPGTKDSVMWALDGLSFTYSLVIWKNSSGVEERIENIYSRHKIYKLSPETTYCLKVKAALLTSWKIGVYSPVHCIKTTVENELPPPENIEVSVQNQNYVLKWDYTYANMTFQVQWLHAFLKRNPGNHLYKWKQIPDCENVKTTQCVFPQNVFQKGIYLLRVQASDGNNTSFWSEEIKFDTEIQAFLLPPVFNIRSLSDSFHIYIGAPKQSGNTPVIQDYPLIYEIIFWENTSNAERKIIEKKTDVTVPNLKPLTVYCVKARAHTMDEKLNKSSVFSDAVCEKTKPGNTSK
Test: native MS

- stoichiometry N: 1
B1: Interferon-β1a (ligand, UniProt P01574 22-187, looked up)
chain: MSYNLLGFLQRSSNFQCQKLLWQLNGRLEYCLKDRMNFDIPEEIKQLQQFQKEDAALTIYEMLQNIFAIFRQDSSSTGWNETIVENLLANVYHQINHLKTVLEEKLEKEDFTRGKLMSSLHLKRYYGRILHYLKAKEYSHCAWTIVRVEILRNFYFINRLTGYLRN
modifications: glycoprotein with a carbohydrate chain, several glycoforms (glycosylation site printed as Asn-90)
